According to article PMC4522956 (2015):

B1: C-terminal Per-Arnt-Sim (PASb) domain of human HIF-3α9 (domain or fragment)
chain: GAFLSRHSLDMKFTYCDDRIAEVAGYSPDDLIGCSAYEYIHALDSDAVSKSIHTLLSKGQAVTGQYRFLARSGGYLWTQTQATVVSGGRGPQSESIVCVHFLISQVEET
B2: HIF-1α PASb (domain or fragment)
chain: not shown

Assays:
[1] = molecular target: T1, HIF-1β PASb labeled with FITC (human (cDNA library from the breast …, UniProt P27540 349-467, FITC (fluorescein isothiocyanate) label, sites not stated)); experiment: FP; PASb-3α with linoleic acid, at equilibrium
[2] = molecular target: T1, HIF-1β PASb labeled with FITC; experiment: FP; PASb-3α with bacterial lipids, at equilibrium
[3] = molecular target: T1, HIF-1β PASb labeled with FITC; experiment: FP; at equilibrium

T1 sequence (P27540 349-467): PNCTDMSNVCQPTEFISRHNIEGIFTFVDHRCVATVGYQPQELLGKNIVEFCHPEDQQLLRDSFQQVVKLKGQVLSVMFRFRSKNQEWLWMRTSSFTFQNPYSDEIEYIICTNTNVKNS

Binder	Kd [1] [µM]	Kd [2] [µM]	Kd [3] [µM]
B1	10	12	–
B2	–	–	36
